Key:
Assay in all cases: co-IP; anti-Flag M2 affinity gel on extracts of NIH3T3 cells transfected with 3xFlag Cyclin A2 alleles; endogenous partners detected by Western blot; densitometry (ImageQuantTL) normalised to immunoprecipitated Cyclin A2, percent of WT; repeated 5 times
Conditions in all cases: partners not purified
[1] = molecular target: T1, Cyclin A2 W207A, C-terminally fused to 3 Flag tags (mouse, UniProt P51943 1-422, W207A)
T1 construct: Cyclin A2, mouse; cDNA obtained from NIH3T3 cells by RT-PCR; source: NIH3T3 or HEK 293 cells, transfected, in cell extracts; not shown: 3xFlag, C-terminal, kept
T1 sequence (P51943 whole entry W207A, the tested form may be a part): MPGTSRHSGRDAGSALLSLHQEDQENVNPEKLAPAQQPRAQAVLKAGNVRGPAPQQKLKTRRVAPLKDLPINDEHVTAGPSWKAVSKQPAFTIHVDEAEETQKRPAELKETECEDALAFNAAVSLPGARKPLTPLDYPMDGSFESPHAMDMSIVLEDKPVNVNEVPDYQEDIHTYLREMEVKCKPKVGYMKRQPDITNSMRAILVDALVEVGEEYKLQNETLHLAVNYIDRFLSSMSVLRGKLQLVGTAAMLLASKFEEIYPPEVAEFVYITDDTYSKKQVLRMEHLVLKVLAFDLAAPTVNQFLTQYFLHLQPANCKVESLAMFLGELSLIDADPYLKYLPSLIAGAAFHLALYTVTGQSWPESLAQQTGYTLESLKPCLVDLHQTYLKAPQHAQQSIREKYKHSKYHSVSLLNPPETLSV

[2] = molecular target: T2, Cyclin A2 M200A, C-terminally fused to 3 Flag tags (mouse, UniProt P51943 1-422, M200A)
T2 construct: Cyclin A2, mouse; cDNA obtained from NIH3T3 cells by RT-PCR; source: NIH3T3 or HEK 293 cells, transfected, in cell extracts; not shown: 3xFlag, C-terminal, kept
T2 sequence (P51943 whole entry M200A, the tested form may be a part): as the sequence (P51943 whole entry W207A, the tested form may be a part) above, with M200A, A207W counted along it

[3] = molecular target: T3, Cyclin A2 K256A, C-terminally fused to 3 Flag tags (mouse, UniProt P51943 1-422, K256A)
T3 construct: Cyclin A2, mouse; cDNA obtained from NIH3T3 cells by RT-PCR; source: NIH3T3 cells, transfected, in cell extracts; not shown: 3xFlag, C-terminal, kept
T3 sequence (P51943 whole entry K256A, the tested form may be a part): as the sequence (P51943 whole entry W207A, the tested form may be a part) above, with A207W, K256A counted along it

[4] = molecular target: T4, Cyclin A2 D171A, C-terminally fused to 3 Flag tags (mouse, UniProt P51943 1-422, D171A)
T4 construct: Cyclin A2, mouse; cDNA obtained from NIH3T3 cells by RT-PCR; source: NIH3T3 or HEK 293 cells, transfected, in cell extracts; not shown: 3xFlag, C-terminal, kept
T4 sequence (P51943 whole entry D171A, the tested form may be a part): as the sequence (P51943 whole entry W207A, the tested form may be a part) above, with D171A, A207W counted along it

[5] = molecular target: T5, Cyclin A2 E285A, C-terminally fused to 3 Flag tags (mouse, UniProt P51943 1-422, E285A)
T5 construct: Cyclin A2, mouse; cDNA obtained from NIH3T3 cells by RT-PCR; source: NIH3T3 cells, transfected, in cell extracts; not shown: 3xFlag, C-terminal, kept
T5 sequence (P51943 whole entry E285A, the tested form may be a part): as the sequence (P51943 whole entry W207A, the tested form may be a part) above, with A207W, E285A counted along it

[6] = molecular target: T6, Cyclin A2 WT, C-terminally fused to 3 Flag tags (mouse, UniProt P51943 1-422)
T6 construct: Cyclin A2, mouse; cDNA obtained from NIH3T3 cells by RT-PCR; Same construct transfected into mouse NIH3T3 (assay a1) and human HEK 293 (assay a2); also called WT Cyclin A2 allele; Flag tagged WT Cyclin A2; source: NIH3T3 or HEK 293 cells, transfected, in cell extracts; not shown: 3xFlag, C-terminal, kept
T6 sequence (P51943 whole entry, the tested form may be a part): as the sequence (P51943 whole entry W207A, the tested form may be a part) above, with A207W counted along it

[7] = molecular target: T7, Cyclin A2 Triple (M200A, L204A, W207A), C-terminally fused to 3 Flag tags (mouse, UniProt P51943 1-422, M200A | L204A | W207A)
T7 construct: Cyclin A2, mouse; cDNA obtained from NIH3T3 cells by RT-PCR; also called Triple mutant; source: NIH3T3 or HEK 293 cells, transfected, in cell extracts; not shown: 3xFlag, C-terminal, kept
T7 sequence (P51943 whole entry M200A/L204A/W207A, the tested form may be a part): as the sequence (P51943 whole entry W207A, the tested form may be a part) above, with M200A, L204A counted along it

[8] = molecular target: T8, Cyclin A2 E210Q, C-terminally fused to 3 Flag tags (mouse, UniProt P51943 1-422, E210Q)
T8 construct: Cyclin A2, mouse; cDNA obtained from NIH3T3 cells by RT-PCR; source: NIH3T3 cells, transfected, in cell extracts; not shown: 3xFlag, C-terminal, kept
T8 sequence (P51943 whole entry E210Q, the tested form may be a part): as the sequence (P51943 whole entry W207A, the tested form may be a part) above, with A207W, E210Q counted along it

[9] = molecular target: T9, Cyclin A2 L282R, C-terminally fused to 3 Flag tags (mouse, UniProt P51943 1-422, L282R)
T9 construct: Cyclin A2, mouse; cDNA obtained from NIH3T3 cells by RT-PCR; source: NIH3T3 cells, transfected, in cell extracts; not shown: 3xFlag, C-terminal, kept
T9 sequence (P51943 whole entry L282R, the tested form may be a part): as the sequence (P51943 whole entry W207A, the tested form may be a part) above, with A207W, L282R counted along it

[10] = molecular target: T10, Cyclin A2 Double (W207L, E210Q), C-terminally fused to 3 Flag tags (mouse, UniProt P51943 1-422, W207L | E210Q)
T10 construct: Cyclin A2, mouse; cDNA obtained from NIH3T3 cells by RT-PCR; also called Double mutant; source: NIH3T3 cells, transfected, in cell extracts; not shown: 3xFlag, C-terminal, kept
T10 sequence (P51943 whole entry W207L/E210Q, the tested form may be a part): as the sequence (P51943 whole entry W207A, the tested form may be a part) above, with A207L, E210Q counted along it

[11] = molecular target: T11, Cyclin A2 L204A, C-terminally fused to 3 Flag tags (mouse, UniProt P51943 1-422, L204A)
T11 construct: Cyclin A2, mouse; cDNA obtained from NIH3T3 cells by RT-PCR; source: NIH3T3 or HEK 293 cells, transfected, in cell extracts; not shown: 3xFlag, C-terminal, kept
T11 sequence (P51943 whole entry L204A, the tested form may be a part): as the sequence (P51943 whole entry W207A, the tested form may be a part) above, with L204A, A207W counted along it

[12] = molecular target: T12, Cyclin A2 E180A, C-terminally fused to 3 Flag tags (mouse, UniProt P51943 1-422, E180A)
T12 construct: Cyclin A2, mouse; cDNA obtained from NIH3T3 cells by RT-PCR; source: NIH3T3 cells, transfected, in cell extracts; not shown: 3xFlag, C-terminal, kept
T12 sequence (P51943 whole entry E180A, the tested form may be a part): as the sequence (P51943 whole entry W207A, the tested form may be a part) above, with E180A, A207W counted along it

Binder	percent co-precipitated relative to WT [1] [%]	percent co-precipitated relative to WT [2] [%]	percent co-precipitated relative to WT [3] [%]	percent co-precipitated relative to WT [4] [%]	percent co-precipitated relative to WT [5] [%]	percent co-precipitated relative to WT [6] [%]	percent co-precipitated relative to WT [7] [%]	percent co-precipitated relative to WT [8] [%]	percent co-precipitated relative to WT [9] [%]	percent co-precipitated relative to WT [10] [%]	percent co-precipitated relative to WT [11] [%]	percent co-precipitated relative to WT [12] [%]
CDK1 (endogenous, NIH3T3) (enzyme, CDK1, endogenous protein of mouse NIH3T3 cells, detected by Western blot; source: endogenous, NIH3T3 cell extract) not shown	15.3	72.8	3.8	100	4.7	100	0.4	45.3	19.8	9.2	57.2	
p21 (endogenous, NIH3T3) (natural protein, mouse (endogenous in NIH3T3), UniProt P39689 1-159, looked up, p21, endogenous protein of mouse NIH3T3 cells, detected by Western blot; source: endogenous, NIH3T3 cell extract) MSNPGDVRPVPHRSKVCRCLFGPVDSEQLRRDCDALMAGCLQEARERWNFDFVTETPLEGNFVWERVRSLGLPKVYLSPGSRSRDDLGGDKRPSTSSALLQGPAPEDHVALSLSCTLVSERPEDSPGGPGTSQGRKRRQTSLTDFYHSKRRLVFCKRKP	79.2	100	41.9	100	78.2	100		60.2	65.7	8.2	100	11.7

More lines, now with the values ahead:

percent co-precipitated relative to WT [1] [%]	percent co-precipitated relative to WT [2] [%]	percent co-precipitated relative to WT [3] [%]	percent co-precipitated relative to WT [4] [%]	percent co-precipitated relative to WT [5] [%]	percent co-precipitated relative to WT [6] [%]	percent co-precipitated relative to WT [7] [%]	percent co-precipitated relative to WT [8] [%]	percent co-precipitated relative to WT [9] [%]	percent co-precipitated relative to WT [10] [%]	percent co-precipitated relative to WT [11] [%]	percent co-precipitated relative to WT [12] [%]	Binder
	79.2	17	100	8.6	100		70	58.6		65.6	19.6	p107 (endogenous, NIH3T3) (natural protein, mouse (endogenous in NIH3T3), UniProt Q64701 1-1063, looked up, p107, endogenous protein of mouse NIH3T3 cells, detected by Western blot; source: endogenous, NIH3T3 cell extract) MFEDEPHAEGAAAVAAAREALQALCQELNLDEGSAAEALDDFTAIRGNYSLEGEVIHWLACSLYVACRKSIIPTVGKGVMEGNCVSLTRILRSAKLSLIQFFSKMKKWMDMSNLPQEFRERIERLERNFEVSTVIFKKFEPIFLDIFQNPYEEPPKLPRSRKQRRIPCSVKDLFNFCWTLFVYTKGNFRMIGDDLVNSYHLLLCCLDLIFANAIMCPNRRDLLNPSFKGLPSDFHAPDFKAAEEPPCIIAVLCDLHDGLLVEAKGIKEHYFKPYISKLFDKKILKGECLLDLSSFTDNSKAVNKEYEEYVLTVGDFDERIFLGADAEEEIGTPRKFTADTPFGKLTSQASVECNLQQHFEKKRSFAPSTPLTGRRYLQEKEAVTTPVASATQSVSRLQSIVAGLKSAPSEQLLNIFESCMRNPMGNIIKIVKGIGETFCQHYTQSTDKQPGSHIDFAVNRLKLAEILYYKILETIMVQETRRLHGMDMSVLLEQDIFHKSLMACCLEIVLFAYSSPRTFPWIIEVLDLQPFYFYKVIEVVIRSEEGLSRDMVKHLNSIEEQILESLAWTNNSALWEALHASANRVPSCEEVIFPNNFEIGNGGNVQGHLPMMPMSPIIHPRVKEVRTDSGSLRQDMQPLSPISVHERYSSPAAGSAKRRLFGDDPPKDTLMDKIMAEGTKLKIAPSSVTAESLSISPGQALLTMATTTVTGTTGRKVTVPLHGIANDAGEITLVPISMNPTQESTAESPVSLTAQSLIGTSPKQTHLTKAQDAHLTGVSKPKRTGSLALFYRKVYHLASVRLRDLCLKLDVSNELRRKIWTCFEFTLVHCPDLMKDRHLDQLLLCAFYIMAKVTKEERTFQEIMKSYRNQPQANSHVYRSVLLKSIPGGVVVYNGDCEMTDGDIEDATKTPNCSSEPVKEERGDLIKFYNTVYVGRVKSFALKYDLSNQDHIMDAPPLSPFPHIKQQPGSPRRISQQHSLYVSPHKNGAGLTPRSALLYKFNGSPSKSLKDINNMIRQGEQKTKKRVIAISGDADSPAKRLCQENDDVLLKRLQDVVSERANH
	69.2	19.3	100	36.7	100		95.7	44.5		15.2		p27 (endogenous, NIH3T3) (natural protein, mouse (endogenous in NIH3T3), UniProt P46414 1-197, looked up, p27, endogenous protein of mouse NIH3T3 cells, detected by Western blot; source: endogenous, NIH3T3 cell extract) MSNVRVSNGSPSLERMDARQAEHPKPSACRNLFGPVNHEELTRDLEKHCRDMEEASQRKWNFDFQNHKPLEGRYEWQEVERGSLPEFYYRPPRPPKSACKVLAQESQDVSGSRQAVPLIGSQANSEDRHLVDQMPDSSDNPAGLAEQCPGMRKRPAAEDSSSQNKRANRTEENVSDGSPNAGTVEQTPKKPGLRRQT

From paper PMC3145769, “Cyclin A2 Mutagenesis Analysis: A New Insight into CDK Activation and Cellular Localization Requirements” (PLoS ONE, 2011)
